# Data taken from the DeepSol protein solubility set.
# Assay: soluble on expression in E. coli; label from the status in PepcDB or PDB records
row,Sequence,soluble on expression in E. coli
1,MKNYHDIVLALAGVCQSAKLVHQLATESRADSETFLTALNSLFITQPQRIEDVFGGEVRHLKLGLETLIHQLNAQGDQNLTRYWLSLLALEGKLSKNSDAKQTLGNRISRLKEQEIHYARDSETMLSIMANIYSDIISPLGKKIHILGSPDYLRQELVQNKIRAVLLAGIRSAVLWKQMGGTKWQILFFRRKLLATAKQIYSSIY,not soluble
2,MKPANLIHPSVIMSKKYNKMGEGCIICASNIITVNVTLGDHIIVNLDCTIGHDVVINDYVTIYPSVNVSGNCNIGECVELGTGTQVIQGNNIGDRTIVGAGSVVIRNIEGDKVAVGVPTKVIKLEHHHHHH,not soluble
3,MKPLSSAIAAALILFSAQGVAEQTTQPVVTSCANVVVVPPSQEHPPFDLNHMGTGSDKSDALGVPYYNQHAM,soluble
4,MKPTDTSEKALEQLIVRHLAGISEHASVPPNAVQSPGAIYALGGYVLGRATDFNRDVALDTVQLLAFLQATQPDAVETLELAHEGIKRTQFLHRLQGEITKRGVVDVLRKGVSHGPVRVDLYRLLPTPGNTNAAEAFGRNIFSITRQVRYSHDSGNELDLVIFVNGLPVLTFELKNSLTKQTVADAIVQYQSTRSPQELLFQPGRCIAHFAVDDAEVYFCTELKGKASWFLPFNQGWNNGAGNPPNPNGLKTDYLWKQVLAKESLANIIESFAQVVEEQETDATTGRKKKKRKPVFPRFHQLRTVRALLRRTRSDGVGKRYLIQHSAGSGKSNTIAWLAHQLVELRSVADPLMPQFDSIIVITDRRALDTQIARTIKGYDHVASIFGHSDNAQELRDYLRRGRKIIVTTVQKFPFILEEIGDLSGRTFALLIDEAHSSQGGKTTARMHEALSGKTDEEAFEEDATQDAVNTEIEKRIQSRRMLSNASYFAFTATPKNRTLELFGEKTVVDDKVEFRSPEELTYTTKQAIQEGFILDVIAHYTTLDSFYQVAKTVENDPDFDKARALKKIRHYVESHDKAIRRKAEIMVDHFVAQVMGAKKIGGKARAMIVCNGIARAIDYWREVSDYLEQIKSPYKAIVAYSGEFEIGGEKKTEADLNDFPSKEIPDRLRQDPYRFLIVANKFVTGFDEPLLHTMYVDKKLAGVQAVQTLSRLNRAHPQKHDTFVLDFADNAEAVKKAFQDYYRATIQTGETDANKLHDLKADLDDKQIYSWPQVEDLVALYLSGADRDKLDPILDHCVEQYQANLDEDNQVEFKGKAKAFVRSYGFLAAILSYGHPAWEKLSIFLNFLIPKLPAPKEEDLSKGVLESIDIDSYRVEARAALKMAMDDTDATVEVAPVGGGGGKGEPDIDKLSNILKTFNDLFGNIDWKDADKIGKVIAEEIPVRVAQDKAYQNAQVNSDRQNAKLEHDKALNRVVLELLSDHTELFKQFSDNPNFKRWLTDMVFDVTYQQNPAHGVEDVRMRALDIVRDRFDAAVVWSQAVDMLLDRLAAGGRNSLGIADLALIEETSGLSVSHVLFPVLNLLSAHDVGILNREFVRVGSTDTPQTMSFDEVRLLAQKDPEGDDWAECLSIRWALQDAQR,not soluble
5,MKPYERLLEHNIKPSMQRIAIMEYLMNHPIHPSADDIYTALSPSMPTLSKTTVYNTLRLFSEQGAALMLTIDEKNTNFDADTSVHSHFLCRYCGHIYDLKSPEAVKKVESLEMDGHQVTEVHYYYKGICKNCLRKDKETRID,not soluble
6,MKQDMWELRKIQSQGITDNAQYPAGTYIVFTAAAPYIPLFEQHGKDDIALSLVRHEEAWWIVNHSDELCCAVNEQVMEPHHRMRLNDGDTIEWGLSSWCLARTNDESRPDVSFPQLVQSSESVAEYLDLDWFKQQQLNPQNPFDIIPVRETASSYTGHEADSTLHQLYQEYQQALRPSGQEKPLRAKPFPRNEDAVTQDLTSLYDKKGDTDTLQDMVAGAPGIDAILDTLDTTGEGEMHWLAMESMPDILQLLSPELGGKTAHSEILPDLTRREHRIIGIDSHYRITPTQKNGNTAHEKN,not soluble
7,MKQEFTRIAVKVGSNVLARRDGTLDVTRMSALVDQIAELNKSGVEIILISSGAVASGRSEIHPQKKLDSVDQRQLFSAVGQAKLINRYYELFREHGIAVGQVLTTKENFSTRRHYLNQKNCMTVMLENGVIPIVNENDTISVSELMFTDNDELSGLIASMMDAQALIILSNIDGIYNGSPSDPASAVIREIEHGKDLSNYIQATKSSFGRGGMLTKTNIARKVADEGITVIIANGKRDNILVDLLQQPDDTVCTRFIPSTEAVSSVKKWIAHSEGFAKGEIHINECATDILSSEKAASILPVGITHIEGEFEKDDIVRIMDFLGNQVGVGKANCDSAQAREAMGKHGKKPVVHYDYLYIE,not soluble
8,MKQFGLAAFDELKDGKYNDVNKTILEKQSVELRDQLMVFQERLVEFAKKHNSELQASPEFRSKFMHMCSSIGIDPLSLFDRDKHLFTVNDFYYEVCLKVIEICRQTKDMNGGVISFQELEKVHFRKLNVGLDDLEKSIDMLKSLECFEIFQIRGKKFLRSVPNELTSDQTKILEICSILGYSSISLLKANLGWEAVRSKSALDEMVANGLLWIDYQGGAEALYWDPSWITRQL,soluble
9,MKQIKWWLLAVLLVVGLTGCGSQTTKKQATQQAASTKKISPYVNQQTPTFYVHGFQGSAKSTNTLIAHAEKTAHAHKVLVATVSTSGQVTLTGKWRGRVRNPIIQVVFKNNLAQYDQQSAWLAKVITTVQQQHAFKHYNIVAHSAGCVASVNMLMTQQTTTFPKINKLVTIAGPFDGVVGEDDVANQNSFLTSGQPKYLHAAYELLAAKRNNFPKNVQLLNIVGTLNDGSHSDSLVTNVSARSIKYLLRGRDVDYTEKDFYGAHAQHSQLHENAKVALAVDRFLWHR,not soluble
10,MKQIYFGGGCFWGTQKYFDLIKGVQKTSVGYLNSNMKNPTYEQVCSGQTNAVEAVFVEYDENKVSLNELIDAFFKVIDPTIRNRQGNDIGTQYRTGVYWVDPQDEQLITQKFRELQANYPKPIVTENRAMENYFLAEEYHQDYLKKNPHGYCHIKFD,soluble
11,MKQPPLEDQYQMFGSIALSAFGAELLRHSLLPELLGKDAASLLYWAGKQLARRYPLGTLDDVAVFFERAGWGELSTGEERNDELYIELSGPIIAARFSLYGSCSFQLEAGFLAQQIEQQKRFVTEAVELPPKRDGKARILVKWDRKQAIE,not soluble
12,MKQVPPAAPVAPWLGGKKRLHPLILERIEAIPHRAYVEPFVGMGGIFLRRRFRPRLEVMNDRNGEIINLFRILQRHYPQLLEIMRFQICSRREFDRLRLTDPATLTDLERAARFLYLQRLSFGGKPNGSFGISPGNGPLFSLARLEPLLDAARTRLDGVVFECLDWADLIPRYDTAETLFYLDPPYFGGENDYGKGLFDRAQFARIAEILGSLKGAFLLSINDTPEIRALFGRFHLEPVRLNYSVSAAGSTEAQELLVSNRERIATLL,not soluble
13,MKRALFVAEKNDVAKGVAAILSNGTANRREGRSKFNKIYTLNTELFGQQTAISVTSVSGHMMNFQFHENMSNWQTASMVELFRAPVRHVVTPEMKLIEQTLREQAQRHDILVVWTDCDREGEAIGAEIVKVCRDSNRRLDIFRARFSEITKAAITRAARNLIRLDEKTVAAVDCRSELDLRIGSAFTRLQTLHLRNRFRDLLGQNDTSQVISYGSCQFPTLGFVTDRYKMIENFVSEPFWKLIVEHTRESHKVEFLWDRNRLFDRDTVDILHDECKETKEAHVEKVAKKPKSKWRPQALDTVELEKLGISKLRMSAKQTMQVAEKLYSKGFISYPRTETNKFPAGLNLTPLVQQQTQSNIWGDFANEVLQNGVNPRNGRKSDEAHPPIHPLKFTEKHQLQGDDWKVYELVVRHFLACVSQDAQGEETMVNLTVGTEKFHASGLRIRDMGYLKVYVYEKWGNRLLPTYTEGERFTDFELKIGDGKTQAPDFLTEADLISLMDKYGIGTDATHAEHIEKIKTREYIGVRPDGKLIPSFLGLALVDGYDDMGFAMSKPDLRANLEIGLKEICDGRRQKQEVLDEQIGKYRAIFVESERKIGVLSQSLQRYLDKNNQAGGGPGGPGGGGGPPRGPGGGGGGGPTGPPAPPKPPAKPRGRPPRKSISPAVKNGHDDPENDTIVTLSEVFGSMSNPKPARKPRAPRKSAAPKEQEEEEEVFCQCPEPMRAVTKVVQKEGPNKGKKFYTCSLPYTSSEKCNFFKWA,not soluble
14,MKRANAVKLIVGKETHEKLKELAIVAAKCWNEVNWLRMQQFKEGERVDFSKTEKEVYEKYKQILKVNTQQVARKNAESWRSFFSLIEEKKGKLPKWFKPRPPGYWKDKSGKYKMLIIIRNDRYEIDEEKRIIYLKDFKLSLSFNGKLKWRGKQGRLEIIYNEARRSWYAYIPVEVQNDVKAEDKLKASIDLGIINLATVYVEDGSWYIFKGGSVLSQYEYYSKRISVAQKTLARHKQGRSREMKLLHEKRKRFLKHALNSMVRKIMEEFKNKGVGEIAIGYPKEISKDHGNKLTVNFWNYGYIIRRFEGVGEELGVKVVKVDEAWTSKTCSLCGEAHDDGRIKRGLYRCLRIGKVINADLNGAINILHIPESLGAGSRGQLTVRDRGNGLKTQPAVYRWTNGAGWVSSPTSYEVMKMKAVNCKPMNRHKGTFTLLEHHHHHH,not soluble
15,MKRCDLHIHTVPSVSDREFTYDKEILSDYVAKTKLDVIAITNHNLFDYAQFQEIKDILPQIVVLPGIEVDLEDGHILVIANNDDRTLFDFNSKCEEIKNLIKSEADNITYDRFVGIFGDLSKYLLIPHYEKEPKLRKDILEKLGRNIIAGEVSSVKKFIYMEKERAGLTPVYFSDFRIEKGITPDKYPVSHTFFDVDEVNIKTLKLCLMDKTKVSLTSEEGIKLFPIFPNGQKLSTGLNIMYGKRSTGKTFTLDAIASRFNGKAKYIKQFELLNTNRNDSEQFESDMKVRQEESAENYLREFSDVVTDMLKTCSSDEDDIKLQKYLDAVKSSAQQSNVNDVFSKSKLFNESDFKERSCDEIKELINATQTLLESQLYKKIINKHLSEISLKALLKDLIELYLEGNAANQYVKEVNNMIKMVKESLQLKSAAPRIPDIDLYQYFINKKKREVFAQIAMSVKKSRTISTEKAGHFTVSVSARPFMNATDLKTVRLTQVSLTNAFKKYENPVQYLNELKAAGVEINRIYKLFAAIDYKILNSSGLPVSGGERSEFNFLQKIKDAILCDILIIDEPESSFDNIFLKNEVNKFIKEMAENMPVIISTHNNTIGSSIKPDYILYTEKKMEADGAHFKIYSGYPTAKELRDVDGNTIENYEITLNSLEAGEQAYSERKDIYETLKN,not soluble
16,MKREDLLRHLAETEVWDMIVIGGGATGLGTAVEAAGRGYRTLLLEQGDFAQGTSSRSTKLIHGGVRYLQQGNLTLVLEALRERGLLIRNAPHLVHNLSFVVPLYDWWEGPFYGIGLKLYDVLAGKLGLGPSRLLSREETLGHIPTVEPHGLRGGVIYHDGQFDDSRLAISLALTLADLGGVALNHFPVTGIISRDGLVAGVEARDRETGGAFRIMGRAVINAAGPFVDGVRRLADPAARDLIAPSQGVHLVLDGSFLPGDSAIMVPHTDDGRVLFAVPWHGRTVVGTTDTPIPAAGLEPRPLPEEIDFLLSHAARYLTRHPERRDVLSTFAGIRPLVRSDSGGDTASLSRDHTLLVEGSGLVTIAGGKWTTYRKMGEDTVTAAAQVAGLDHRPSVTETLRIHGWQEDATEGPLQVYGSDAAALEQLLRENAAWREPLHPALPYCAGEVVWGVRHEWARTVEDVLARRTRALLLDARAAVAAAPRVAELMARELGRDSDWQAAQVAAFTHLARGYLPELEHHHHHH,not soluble
17,MKRFLLLLCALLSFSALAAPKADLWPYWQQSNGVNQTSISHLEWQQLLDSYLVTRGDNTLFRYNQVSFADKTKLKQYIQRLASLNPLQYRQAEQYAYWVNLYNALTVHLILDNYPITSITKLGGLFSFGPWDQGVIIINGKSLTLNDIEHRILRPIWQDPRTHYAVNCASLGCPNLQTQAFTAENTQTLLESAAKTFINSKKGVSIEGDTAKISSIYEWFAVDFGGEKEVFNHIRKYAPQYNHFSGRVKYDYDWSLNQADLEHHHHHH,not soluble
18,MKRLEVSNQAKLPTQFGEFYIQCFREKGSNGSKDHLVVFTPNFSQNPLVRLHSECLTGDALGSQKCDCGGALQMALERISKEGGLVIYLRQEGRGIGLFNKVNAYALQDKGYDTIQANEMIGFKDDERDYSVAGEILEYYRIKKMRLLTNNPKKIAALEKYAEVTRESLIVCANEHNQGYLEVKKLKMGHLLLEHHHHHH,soluble
